Data published in paper PMC11326354, “Mechanism of human α3β GlyR modulation in inflammatory pain and 2, 6-DTBP interaction” (Research Square, 2024).

How the values were obtained:
[1] = biological target: the molecule itself; test: cryo-EM structure; heteromeric GlyR in 0.06% digitonin, 20 mM Tris-HCl pH 8.0, 200 mM NaCl, 2 mM glycine
[2] = biological target: human glycine receptor β subunit, βem construct (human); test: as above
[3] = biological target: human glycine receptor β subunit, βem construct (human); test: cryo-EM structure; heteromeric GlyR reconstituted in saposin nanodisc with brain polar lipids extract, 20 mM Tris-HCl pH 8.0, 200 mM NaCl, 2 mM glycine
[4] = biological target: human glycine receptor β subunit, βem construct (human); test: cryo-EM structure; heteromeric GlyR in 0.06% digitonin, 2 mM glycine, with 500 μM 2, 6-DTBP throughout the purification and another 500 μM added before grid freezing
[5] = biological target: the molecule itself; test: FRET or BRET; TIRF-based single-molecule FRET between LD555 and LD655 at C358 of different α3 subunits; labelled GlyR (0.7 nM) held on NeutrAvidin/biotin anti-GFP antibody-coated glass by the GFP in β; 50 mM HEPES-NaOH pH 7.4, 150 mM NaCl, 10 mM MgCl2, 22 °C; apo, with 2 mM glycine, with 2 mM glycine and 500 μM 2, 6-DTBP

human glycine receptor β subunit, βem construct (human), sequence (P48167 whole entry): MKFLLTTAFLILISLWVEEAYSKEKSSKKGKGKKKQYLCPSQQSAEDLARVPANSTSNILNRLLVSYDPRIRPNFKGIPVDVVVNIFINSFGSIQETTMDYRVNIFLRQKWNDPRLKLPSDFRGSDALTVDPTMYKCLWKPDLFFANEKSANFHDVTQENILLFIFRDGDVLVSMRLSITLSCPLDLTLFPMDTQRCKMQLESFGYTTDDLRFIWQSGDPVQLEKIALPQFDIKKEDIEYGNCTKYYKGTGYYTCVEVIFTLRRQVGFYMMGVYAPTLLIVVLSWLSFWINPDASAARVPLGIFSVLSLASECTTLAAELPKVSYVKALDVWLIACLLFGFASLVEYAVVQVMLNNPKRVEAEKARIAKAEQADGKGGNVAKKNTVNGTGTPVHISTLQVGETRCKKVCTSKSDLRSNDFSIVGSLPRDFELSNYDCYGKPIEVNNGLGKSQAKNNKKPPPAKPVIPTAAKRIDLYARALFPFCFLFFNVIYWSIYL

B1: human glycine receptor α3 subunit, α3em construct (receptor, UniProt O75311-1 34-464, looked up)
chain: ARSRSAPMSPSDFLDKLMGRTSGYDARIRPNFKGPPVNVTCNIFINSFGSIAETTMDYRVNIFLRQKWNDPRLAYSEYPDDSLDLDPSMLDSIWKPDLFFANEKGANFHEVTTDNKLLRIFKNGNVLYSIRLTLTLSCPMDLKNFPMDVQTCIMQLESFGYTMNDLIFEWQDEAPVQVAEGLTLPQFLLKEEKDLRYCTKHYNTGKFTCIEVRFHLERQMGYYLIQMYIPSLLIVILSWVSFWINMDAAPARVALGITTVLTMTTQSSGSRASLPKVSYVKAIDIWMAVCLLFVFSALLEYAAVNFVSRQHKELLRFRRKRKNKTEAFDMDDEVRESRFSFTAYGMGPCLQAKDGMTPKGPNHPVQVMPKSPDEMRKVFIDRAKKIDTISRACFPLAFLIFNIFYWVIYKILRHEDIHQQQD
notes: glycine receptor α3 subunit, human, NCBI NP_006520.2; 9 residues of the M3/M4 loop (A329-S337) deleted; the model description counts 422 aa in all, from A1 to D431; Four copies of this subunit stand with one β subunit in the pentamer; also called GlyR α3
- binding result [1]: binds
- stoichiometry N [2]: 4 α3 per β
- stoichiometry N [3]: 4 α3 per β

B2: human glycine receptor α3 subunit, α3S346Eem construct (phosphorylation mimic) (receptor, UniProt O75311-1 34-464, looked up)
chain: ARSRSAPMSPSDFLDKLMGRTSGYDARIRPNFKGPPVNVTCNIFINSFGSIAETTMDYRVNIFLRQKWNDPRLAYSEYPDDSLDLDPSMLDSIWKPDLFFANEKGANFHEVTTDNKLLRIFKNGNVLYSIRLTLTLSCPMDLKNFPMDVQTCIMQLESFGYTMNDLIFEWQDEAPVQVAEGLTLPQFLLKEEKDLRYCTKHYNTGKFTCIEVRFHLERQMGYYLIQMYIPSLLIVILSWVSFWINMDAAPARVALGITTVLTMTTQSSGSRASLPKVSYVKAIDIWMAVCLLFVFSALLEYAAVNFVSRQHKELLRFRRKRKNKTEAFDMDDEVREERFSFTAYGMGPCLQAKDGMTPKGPNHPVQVMPKSPDEMRKVFIDRAKKIDTISRACFPLAFLIFNIFYWVIYKILRHEDIHQQQD
notes: glycine receptor α3 subunit, human, NCBI NP_006520.2; α3em (A329-S337 deleted) with S346E; the model description counts 422 aa in all, from A1 to D431; Four copies of this subunit stand with one β subunit in the pentamer; also called α3emS346E
- binding result [1]: binds
- stoichiometry N [2]: 4 α3 per β
- stoichiometry N [4]: 4 α3 per β

B3: human glycine receptor α3 subunit, α3S346E_(FRET) construct (receptor, UniProt O75311-1 34-464, looked up)
chain: ARSRSAPMSPSDFLDKLMGRTSGYDARIRPNFKGPPVNVTVNIFINSFGSIAETTMDYRVNIFLRQKWNDPRLAYSEYPDDSLDLDPSMLDSIWKPDLFFANEKGANFHEVTTDNKLLRIFKNGNVLYSIRLTLTLSCPMDLKNFPMDVQTCIMQLESFGYTMNDLIFEWQDEAPVQVAEGLTLPQFLLKEEKDLRYCTKHYNTGKFTCIEVRFHLERQMGYYLIQMYIPSLLIVILSWVSFWINMDAAPARVALGITTVLTMTTQSSGSRASLPKVSYVKAIDIWMAVCLLFVFSALLEYAAVNFVSRQHKELLRFRRKRKNKTEAFDMDDEVREERFSFTAYGMGPCLQAKDGMTPKGPNHPVQVMPKSPDEMRKVFIDRAKKIDTISRACFPLAFLIFNIFYWVIYKILRHEDIHQQQD
modifications: cysteine-reactive dye (LD555-MAL or LD655-MAL) at C358
notes: glycine receptor α3 subunit, human, NCBI NP_006520.2; α3S346Eem (A329-S337 deleted, S346E) with C41V and an A1 tag inserted between S380 and P381; Stood in the smFRET assay as part of the α3_(FRET)S346Eβ_(FRET) pentamer, which was held on the glass by the GFP in β_(FRET) (βem with C115S); also called α3_(FRET)S346E
- binding result [5]: binds

B4: human glycine receptor α3 subunit, α3_(FRET) construct (receptor, UniProt O75311-1 34-464, looked up)
chain: ARSRSAPMSPSDFLDKLMGRTSGYDARIRPNFKGPPVNVTVNIFINSFGSIAETTMDYRVNIFLRQKWNDPRLAYSEYPDDSLDLDPSMLDSIWKPDLFFANEKGANFHEVTTDNKLLRIFKNGNVLYSIRLTLTLSCPMDLKNFPMDVQTCIMQLESFGYTMNDLIFEWQDEAPVQVAEGLTLPQFLLKEEKDLRYCTKHYNTGKFTCIEVRFHLERQMGYYLIQMYIPSLLIVILSWVSFWINMDAAPARVALGITTVLTMTTQSSGSRASLPKVSYVKAIDIWMAVCLLFVFSALLEYAAVNFVSRQHKELLRFRRKRKNKTEAFDMDDEVRESRFSFTAYGMGPCLQAKDGMTPKGPNHPVQVMPKSPDEMRKVFIDRAKKIDTISRACFPLAFLIFNIFYWVIYKILRHEDIHQQQD
modifications: cysteine-reactive dye (LD555-MAL or LD655-MAL) at C358
notes: glycine receptor α3 subunit, human, NCBI NP_006520.2; α3em (A329-S337 deleted) with C41V and an A1 tag inserted between S380 and P381; Stood in the smFRET assay as part of the α3_(FRET)β_(FRET) pentamer, which was held on the glass by the GFP in β_(FRET) (βem with C115S); also called α_(FRET)
- binding result [5]: binds
